The values below come from PMC3689955.

The experiment deals with XRCC4/Ligase IV (XL) (UniProt Q13426).
Sequence of XRCC4/Ligase IV (XL) (Q13426 whole entry, chain 1 of 2): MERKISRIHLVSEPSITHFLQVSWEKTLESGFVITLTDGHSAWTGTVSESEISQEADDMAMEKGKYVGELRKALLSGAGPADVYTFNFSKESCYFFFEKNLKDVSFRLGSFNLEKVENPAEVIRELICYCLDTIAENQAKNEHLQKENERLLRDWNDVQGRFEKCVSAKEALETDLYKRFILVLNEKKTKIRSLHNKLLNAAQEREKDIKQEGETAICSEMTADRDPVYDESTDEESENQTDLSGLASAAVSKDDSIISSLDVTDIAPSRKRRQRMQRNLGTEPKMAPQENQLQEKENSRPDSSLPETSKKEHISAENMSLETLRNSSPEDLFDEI
Sequence of XRCC4/Ligase IV (XL) (P49917 whole entry, chain 2 of 2, further chain): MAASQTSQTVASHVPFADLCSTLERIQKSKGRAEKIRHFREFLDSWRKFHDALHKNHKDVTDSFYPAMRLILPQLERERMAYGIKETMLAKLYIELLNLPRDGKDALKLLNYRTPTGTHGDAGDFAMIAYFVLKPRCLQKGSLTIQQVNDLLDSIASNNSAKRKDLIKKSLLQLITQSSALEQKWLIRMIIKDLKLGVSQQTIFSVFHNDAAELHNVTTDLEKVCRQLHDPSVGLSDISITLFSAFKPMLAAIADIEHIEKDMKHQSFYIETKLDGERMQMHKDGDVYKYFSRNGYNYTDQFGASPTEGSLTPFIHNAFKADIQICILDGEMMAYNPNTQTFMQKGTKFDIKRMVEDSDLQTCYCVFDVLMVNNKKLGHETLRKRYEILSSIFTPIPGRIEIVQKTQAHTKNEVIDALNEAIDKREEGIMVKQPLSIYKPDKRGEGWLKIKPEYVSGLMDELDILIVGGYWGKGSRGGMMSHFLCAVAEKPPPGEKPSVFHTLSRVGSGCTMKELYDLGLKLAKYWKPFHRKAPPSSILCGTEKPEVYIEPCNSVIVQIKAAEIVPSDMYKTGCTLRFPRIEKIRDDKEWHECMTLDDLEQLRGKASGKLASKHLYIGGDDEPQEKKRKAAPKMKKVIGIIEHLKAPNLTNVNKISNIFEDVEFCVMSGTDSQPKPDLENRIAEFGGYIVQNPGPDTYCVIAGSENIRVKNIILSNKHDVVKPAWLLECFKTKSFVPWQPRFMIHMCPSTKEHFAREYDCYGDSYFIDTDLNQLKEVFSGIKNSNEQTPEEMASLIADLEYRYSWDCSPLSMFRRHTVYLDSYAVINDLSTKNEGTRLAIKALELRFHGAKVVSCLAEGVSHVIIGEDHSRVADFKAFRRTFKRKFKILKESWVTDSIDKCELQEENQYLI

Sequence of XRCC4-like factor (XLF, also known as Cernunnos) (Q9H9Q4 whole entry): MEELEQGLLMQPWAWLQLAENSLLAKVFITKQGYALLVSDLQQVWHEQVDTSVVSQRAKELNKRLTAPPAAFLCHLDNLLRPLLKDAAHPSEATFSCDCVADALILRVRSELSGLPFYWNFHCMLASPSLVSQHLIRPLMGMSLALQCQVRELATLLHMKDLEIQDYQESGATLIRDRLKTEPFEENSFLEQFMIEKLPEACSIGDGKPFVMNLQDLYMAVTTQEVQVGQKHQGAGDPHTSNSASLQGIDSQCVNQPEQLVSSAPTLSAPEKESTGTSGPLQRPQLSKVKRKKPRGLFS

“XRCC4-like factor (XLF, also known as Cernunnos) (from UniProt Q9H9Q4 1-299) (natural protein)”: the stoichiometry N (XL to XLF molar ratio) was 1.
